B1: PMS1 protein homolog 1, residues 572 to 637; numbered along this chain, P54277 (parent)
chain: KKPMSASALFVQDHRPQFLIENPKTSLEDATLQIEELWKTLSEEEKLKYEEKATKDLERYNSQMKR

Variants of: B1
Experiment: abundance fitness (aPCA) (normalised: wild type 0, dead -1); higher = more abundant; growth selection in yeast, the domain comes from the species named
Settings: Homo sapiens

Abundance fitness: each site, then its substitutions
T54: L -0.009, W -0.346
R59: E 0.05, D 0.17, T -0.063, M -0.046, V -0.021, I 0.088, N -0.169, S -0.017, K -0.171
Y60: T -0.039, V -0.083, G -0.046, D 0.026, L -0.186, E -0.103, R -0.07
D13: C -0.66, G -0.844
L57: T -0.19, D 0.024, Q -0.115, G -0.14, H -0.112, C -0.084, E -0.066, V -0.119, M 0.03
Q33: E -0.124, T -0.454, W -0.696, M -0.283, G -0.405
E45: C -0.327, F -0.606, R -0.187, P -0.811, M -0.21, A -0.258, T -0.214, S -0.198
T25: L -0.096, W -0.531, N -0.192, M -0.156, C -0.159, V 0.116, R -0.317
S26: K -0.155, T -0.061, C -0.111, Q -0.327, W -1.3, M -0.482, H -0.349
L47: M 0.017, W -0.141, R -0.091, S -0.039, E -0.184, V 0.055
H14: Y -0.063
S5: W -0.874, E -0.031
S62: P -0.148, G -0.151, M -0.099, Y -0.104, V -0.078, F -0.067, I -0.249, D -0.115
E58: I -0.179, V -0.108, Y -0.267, M -0.169, Q -0.005, N -0.307
K52: H -0.272, E -0.059, Y -0.302, P -0.38, Q -0.009, S -0.184, F -0.507, C -0.076, R -0.041, T -0.288, N -0.285
N61: K 0.007, F -0.515, E 0.047, S -0.092, M -0.128, G -0.201
L32: M 0.043, Q -0.15, V -0.117, T -0.246, R 0.019, E -0.144
K55: C -0.086, S -0.067, N -0.103, L -0.065, R -0.076, G -0.137, V -0.016, D -0.045
F10: H -0.183, A -0.608, M -0.433, L -0.731, Q -0.466, W -0.267, V -0.812, G -0.791
K1: Y -0.174, V -0.191, R -0.216, C 0.184
L9: T -0.287, P -0.98, F -0.131, N -0.467
E43: Q 0.007, R -0.025, G -0.09, I -0.133, F -0.234, H -0.087, D 0.029
Y49: P -0.581, N -0.717, H -0.616, Q -0.496, S -0.676
L41: I -0.202, M -0.145, K -0.317, T -0.007, W -0.617, E -0.295, Y -0.59, S -0.069, F -0.733
L37: C -0.278, H -0.01, K 0.116, V -0.127, W -0.386, M -0.319, P -0.995, S -0.083, A -0.052
A6: W -1.87, M -0.704, T -0.646, S -0.195, I -1.17
S42: P -0.065, G -0.165, Y -1.21, D -0.045, N -0.135, C -0.28

— the Human Domainome abundance scans (Beltran et al. 2025)
